Experimental data taken from FireProtDB (doi:10.1016/j.jmb.2005.09.061).
Values joined by “and” are separate entries in the source; they are usually repeats but may differ in a detail not shown here. Equal values may be shown once.

B1: Alpha-lactalbumin, P00712 (parent)
chain: MMSFVSLLLVGILFHATQAEQLTKCEVFQKLKDLKDYGGVSLPEWVCTAFHTSGYDTQAIVQNNDSTEYGLFQINNKIWCKDDQNPHSRNICNISCDKFLDDDLTDDIVCAKKILDKVGINYWLAHKALCSEKLDQWLCEKL

Variants of: B1
Settings: Capra hircus; pH 7; Thermal; CD; sodium cacodylate 50 mM; NaCl 50 mM; reversible: Yes; structure 1HFY; whole UniProt chain shown

| Variant | Tm | change of melting temperature, mutant - wild type (higher = more stable) | heat capacity change of unfolding [kcal/mol/K] | unfolding enthalpy (van 't Hoff) |
| --- | --- | --- | --- | --- |
| MMSFVSLLLVGILFHATQAEQLTKCEVFQKLKDLKDYGGVSLPEWVCTAFHTSGYDAQAIVQNNDSTEYGLFQINNKIWCKDDQNPHSRNICNISCDKFLDDDLTDDIVCAKKILDKVGINYWLAHKALCSEKLDQWLCEKL | 59 °C and 54.1 °C | -6.8 °C and -4.9 °C | 1.8 | 68.8 kcal/mol and 62.5 kcal/mol |
